From PMC2173603 come the findings set out here.

The target in this assay is L1-CFP (CFP tagged to the COOH terminus of human L1-CAM) (human) (UniProt P32004). The assay is described as follows: FRET or BRET.
UniProt P32004, sequence (P32004 20-1257): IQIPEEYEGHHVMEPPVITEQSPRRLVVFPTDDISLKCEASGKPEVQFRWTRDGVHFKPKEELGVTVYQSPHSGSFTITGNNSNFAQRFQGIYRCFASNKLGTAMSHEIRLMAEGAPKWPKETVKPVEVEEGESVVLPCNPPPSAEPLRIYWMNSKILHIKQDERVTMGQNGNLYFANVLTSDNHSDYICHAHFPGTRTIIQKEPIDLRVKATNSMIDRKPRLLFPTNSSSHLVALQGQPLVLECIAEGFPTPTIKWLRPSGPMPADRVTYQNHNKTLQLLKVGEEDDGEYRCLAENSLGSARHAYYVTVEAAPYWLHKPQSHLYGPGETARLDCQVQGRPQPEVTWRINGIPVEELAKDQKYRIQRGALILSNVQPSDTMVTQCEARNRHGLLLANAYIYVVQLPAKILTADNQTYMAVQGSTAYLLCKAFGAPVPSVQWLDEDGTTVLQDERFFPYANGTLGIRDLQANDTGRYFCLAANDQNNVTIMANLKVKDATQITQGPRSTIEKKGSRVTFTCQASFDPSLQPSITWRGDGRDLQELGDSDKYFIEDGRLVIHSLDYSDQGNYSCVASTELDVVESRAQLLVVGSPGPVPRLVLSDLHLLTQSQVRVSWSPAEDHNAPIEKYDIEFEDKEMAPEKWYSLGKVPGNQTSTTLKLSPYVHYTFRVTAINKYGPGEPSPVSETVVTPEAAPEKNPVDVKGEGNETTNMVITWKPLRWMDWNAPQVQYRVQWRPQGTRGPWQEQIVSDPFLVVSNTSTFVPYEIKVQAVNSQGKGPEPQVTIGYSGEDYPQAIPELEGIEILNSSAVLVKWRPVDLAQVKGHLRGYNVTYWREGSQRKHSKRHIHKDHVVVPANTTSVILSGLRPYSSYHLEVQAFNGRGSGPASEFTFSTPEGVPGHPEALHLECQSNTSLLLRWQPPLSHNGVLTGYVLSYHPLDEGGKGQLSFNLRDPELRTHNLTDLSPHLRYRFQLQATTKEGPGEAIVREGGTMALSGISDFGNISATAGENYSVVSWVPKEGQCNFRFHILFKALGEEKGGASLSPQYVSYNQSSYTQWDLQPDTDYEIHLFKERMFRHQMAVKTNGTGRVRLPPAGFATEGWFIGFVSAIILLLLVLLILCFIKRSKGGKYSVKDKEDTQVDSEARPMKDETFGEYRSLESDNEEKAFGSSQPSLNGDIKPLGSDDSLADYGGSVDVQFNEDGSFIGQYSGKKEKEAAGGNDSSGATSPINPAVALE

“Venus-ankyrinB (Venus tagged to the NH2 terminus of human ankyrinB) (natural protein)” returned a percent of ankyrinB clusters with FRET^E >8% of 29.4%.
